{"source": "patent US20250313626A1", "about": "(HARBOUR BIOMED SHANGHAI, published 2025)", "binders": {"B1": {"name": "PR007444 (antibody, human IgG1, kappa)", "heavy": "not shown", "light": "DIQMTQSPPSLSASVGDRVTITCRASQSISSYLNWFQQKAGKAPKLLISATSNLQSGVPSRFSGSGSGTDFTLTISSLQPEDLATYYCQQTYSSPYTFGQGTKVEIKRTVAAPSVFIFPPSDEQLKSGTASVVCLLNNFYPREAKVQWKVDNALQSGNSQESVTEQDSKDSTYSLSSTLTLSKADYEKHKVYACEVTHQGLSSPVTKSFNRGEC", "notes": "PTM variant of PR006895 (human IgG1)"}, "B2": {"name": "PR005512 (antibody, human IgG1, kappa, L234A L235A, V domains shown)", "VH": "QVQLVESGGGVVQPGRSLRLSCVASGFTFSSYGMHWVRQAPGKGLEWVAIIWNDGSNRYYADSVKGRFTISRDNSKNTLYLQMNSLRAEDTAVYYCARDRIVGAGFDYWGQGTLVTVSS", "VL": "not shown", "notes": "also called PR60-012; PRE04512"}, "B3": {"name": "PR007974 (antibody, human IgG1, kappa, V domains shown)", "VH": "QVQLVESGGGVVQPGRSLRLSCAASGFTFSYYGFHWVRQAPGKGLEWLGLIWSDARHKDYADSVKGRFTISRDNSKNTLYLQMNSLRAEDTAVYYCARDRIVGEGFDYWGQGTLVTVSS", "VL": "DIVMTQSPLSLPVTPGEPASISCRSSQSLLHRSGYNYLDWYLQKPGQSPQLLIYLGSYRASGVPDRFSGSGSGTDFTLKISRVEAEDVGVYYCQQGIQTTYTFGQGTKLEIKR", "notes": "PTM variant of PR006839 (human IgG1)"}}, "key": {"[1]": {"biological_target": "T1, CD200R1a on PathHunter Jurkat CD200R1a signaling cells (Eurofins DiscoverX, 93-1136C19) (human, UniProt Q8TD46 25-348)", "T1 sequence": "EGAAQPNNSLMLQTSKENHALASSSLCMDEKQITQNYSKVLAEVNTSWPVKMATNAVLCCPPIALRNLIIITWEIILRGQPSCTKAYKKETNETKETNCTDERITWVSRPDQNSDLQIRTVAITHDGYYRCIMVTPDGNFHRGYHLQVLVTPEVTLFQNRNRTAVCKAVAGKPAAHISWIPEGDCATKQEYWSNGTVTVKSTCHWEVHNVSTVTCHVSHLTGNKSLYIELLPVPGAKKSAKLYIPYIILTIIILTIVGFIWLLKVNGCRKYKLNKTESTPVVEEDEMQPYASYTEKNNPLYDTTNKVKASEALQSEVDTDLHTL", "assay": "cell-based or functional assay"}, "[2]": {"biological_target": "T2, human CD200R1 isoform a on CHOK1 cells (CHOK1/hCD200R1a) (human, UniProt Q8TD46 25-348)", "T2 construct": "also called CHOK1/CD200R1a", "T2 sequence": "T1 sequence", "assay": "flow cytometry, CHOK1/hCD200R1a cells (FITC-Mean); table beside the curves", "procedure": "(§1) This example is intended to investigate the in vitro binding activity of human anti-CD200R1 monoclonal antibodies to human/Cynomolgus macaques CD200R1a expressed on the surface of cells. The anti-CD200R1 antibodies were produced as described in Example 3.4 and the binding experiments at the cell level were performed using CHOK1/hCD200R1a and CHOK1-cynoCD200R1a.\n(§2) Briefly, CHOK1/hCD200R1a cells and CHOK1-cynoCD200R1a cells were digested, and collected, and then were resuspended in PBS containing 2% BSA, respectively. The cell density was adjusted to 1×10⁶ cells/mL. The cells were seeded in a 96-well V-bottom plate (Corning, #3894) at 100 μL/well, followed by the addition of test antibodies and reference antibodies in a series diluted concentration, each at 100 μL/well. The cells were incubated away from light at 4° C. for 1 h. Thereafter, the cells in each well were rinsed twice with 100 μL of pre-cooled PBS containing 2% BSA, and centrifuged at 500 g at 4° C. for 5 min, and then the supernatant was discarded. 100 μL of fluorescent secondary antibody (Alexa Fluor 488-conjugated AffiniPure Goat Anti-Human IgG, Fcγ Fragment Specific, Jackson, #109-545-098, diluted in a 1:1000 ratio) was added in each well, and the plate was incubated away from light at 4° C. for 1 h. The cells in each well were rinsed twice with 100 μL of pre-cooled PBS containing 2% BSA, and centrifuged at 500 g at 4° C. for 5 min, and then the supernatant was discarded. Finally, the cells in each well were resuspended in 200 μL of pre-cooled PBS containing 2% BSA, and the fluorescence signal values were read using a BD CantoII flow cytometer."}, "[3]": {"biological_target": "T2, human CD200R1 isoform a on CHOK1 cells …", "assay": "flow cytometry, CHOK1/hCD200R1a cells (FITC-Mean); table beside the curves, head without unit, x axis Log [Ab] (nM)"}, "[4]": {"biological_target": "T2, human CD200R1 isoform a on CHOK1 cells …", "assay": "flow cytometry blocking assay: antibody titrated against biotin-labelled human CD200 binding to CHOK1/hCD200R1a cells; head prints EC50 without unit, x axis Log [Ab] (nM), y axis Inhibition %", "procedure": "(§3) In brief, CHOK1/hCD200R1a cells were digested and resuspended in 2% BSA in PBS. […] The cells were placed at 4° C. and incubated for 1 hour in the dark. […] 100 μL/well of pre-cooled PBS containing 2% BSA was added to rinse the cells twice, centrifugation was performed at 500 g, 4° C. for 5 minutes, and the supernatant was discarded. Fluorescent secondary antibody (PE Streptavidin, BD, Cat #: 554061, 1:200) was added at 100 μL/well, and incubation was performed at 4° C. for 30 minutes in the dark. The cells were washed twice with 200 μL/well of pre-cooled PBS, and were centrifuged at 500 g, 4° C. for 5 minutes, and the supernatant was discarded. Finally, 200 μL/well of pre-cooled PBS was used to resuspend the cells, and the fluorescence signal values were read using ACEA Novocyte 3000 flow cytometer. IC50 values were calculated."}, "[5]": {"biological_target": "T3, Cynomolgus macaques CD200R1 isoform a on CHOK1 cells (CHOK1/cynoCD200R1a) (Cynomolgus macaques)", "T3 chain": "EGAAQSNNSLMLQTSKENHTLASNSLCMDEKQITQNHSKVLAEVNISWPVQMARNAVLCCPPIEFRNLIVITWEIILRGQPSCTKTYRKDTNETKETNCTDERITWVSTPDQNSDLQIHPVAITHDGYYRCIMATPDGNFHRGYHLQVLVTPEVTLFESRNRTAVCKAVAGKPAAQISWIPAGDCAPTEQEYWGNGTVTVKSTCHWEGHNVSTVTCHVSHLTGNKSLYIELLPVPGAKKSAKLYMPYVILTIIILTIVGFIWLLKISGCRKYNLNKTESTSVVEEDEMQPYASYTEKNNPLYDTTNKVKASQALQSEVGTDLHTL", "assay": "flow cytometry, CHOK1/cynoCD200R1a cells (APC-A Mean); table beside the curves"}, "[6]": {"biological_target": "T2, human CD200R1 isoform a on CHOK1 cells …", "assay": "flow cytometry blocking assay: biotin-labelled human CD200 binding to CHOK1/hCD200R1a cells; y axis Inhibition %", "procedure": "as §3"}, "[7]": {"biological_target": "T1, CD200R1a on PathHunter Jurkat CD200R1a …", "assay": "cell-based or functional assay", "remark": "listed apart in the source"}, "Mouse CD200R1-His": {"biological_target": "T4, Mouse CD200R1-His (mouse, UniProt Q9ES57 26-238, limits assumed)", "T4 sequence (looked up)": "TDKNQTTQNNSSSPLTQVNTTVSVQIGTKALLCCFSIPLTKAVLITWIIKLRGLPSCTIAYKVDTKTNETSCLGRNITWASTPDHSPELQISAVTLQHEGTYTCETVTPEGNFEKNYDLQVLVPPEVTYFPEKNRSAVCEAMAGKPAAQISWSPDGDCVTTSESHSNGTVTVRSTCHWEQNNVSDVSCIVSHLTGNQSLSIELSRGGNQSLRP", "assay": "BLI (Octet), antibody captured on anti-human Fc sensor", "procedure": "To determine the binding affinities of the anti-CD200R1 antibodies to CD200R1a proteins of various species (mouse, human, Cynomolgus macaques), bio-layer interferometry (BLI) assays were carried out using an Octet® RED96e instrument. Antibodies were produced as described in Example 3.4 and diluted to 5 μg/mL using freshly prepared 1× kinetic buffer (10× kinetic buffer (Catalog #18-1105, ForteBio) was diluted with PBS(Catalog #E607016-0500, BBI Life Sciences)) and were captured on the surface of anti-human Fc (AHC) Octet biosensors (Catalog #18-5060, ForteBio) to reach capture levels between 0.9-1.2 nm. The biosensors having the captured anti-CD200R1 antibodies were then dipped in wells containing 2-fold serial dilutions of CD200R1a proteins to detect association signals, followed by dissociation steps in wells containing 1× kinetic buffer. The sensorgrams were recorded and the reference signals were subtracted before curve fitting using ForteBio Data Analysis 11.0 software. Association rates (kₒₙ) and dissociation rates (koff) were calculated using a simple one-to-one Langmuir binding model. The equilibrium dissociation constant (KD) was calculated as the ratio of koff/kₒₙ."}, "[8]": {"biological_target": "T2, human CD200R1 isoform a on CHOK1 cells …", "assay": "flow cytometry blocking assay: biotin-labelled human CD200 binding to CHOK1/hCD200R1a cells; y axis Inhibition %", "procedure": "as §3", "remark": "listed apart in the source"}, "[9]": {"biological_target": "T2, human CD200R1 isoform a on CHOK1 cells …", "assay": "flow cytometry, CHOK1/hCD200R1a cells (FITC-Mean); table beside the curves", "procedure": "as §1, §2", "remark": "listed apart in the source"}, "[10]": {"biological_target": "T2, human CD200R1 isoform a on CHOK1 cells …", "assay": "flow cytometry, CHOK1/hCD200R1a cells (FITC-Mean); table beside the curves, head without unit, x axis Log [Ab] (nM)", "remark": "listed apart in the source"}, "[11]": {"biological_target": "T2, human CD200R1 isoform a on CHOK1 cells …", "assay": "flow cytometry blocking assay: antibody titrated against biotin-labelled human CD200 binding to CHOK1/hCD200R1a cells; head prints EC50 without unit, x axis Log [Ab] (nM), y axis Inhibition %", "procedure": "as §3", "remark": "listed apart in the source"}, "[12]": {"biological_target": "T3, Cynomolgus macaques CD200R1 isoform a …", "assay": "flow cytometry, CHOK1/cynoCD200R1a cells (APC-A Mean); table beside the curves"}}, "note": "Where two headings read alike, the source gives them in different places."}
{"binder": "B1", "values": [{"measurement": "IC50 of the inhibition of CD200-induced PathHunter Jurkat CD200R1a luminescence (CHOK1/hCD200 cells as CD200 source)", "setting": "[1]", "value": 0.755, "unit": "nM"}, {"measurement": "MFI(Max)", "setting": "[2]", "value": 10800}, {"measurement": "EC50", "setting": "[3]", "value": 0.15, "unit": "nM"}, {"measurement": "EC50", "setting": "[4]", "value": 0.0926, "unit": "nM"}, {"measurement": "EC50", "setting": "[5]", "value": 8.74, "unit": "nM"}, {"measurement": "MFI (MAX)", "setting": "[5]", "value": 51700}, {"measurement": "Blocking(Max)", "setting": "[6]", "value": 86.6, "unit": "%"}]}
{"binder": "B2", "values": [{"measurement": "IC50 of the inhibition of CD200-induced PathHunter Jurkat CD200R1a luminescence (CHOK1/hCD200 cells as CD200 source); head without unit, x axis Log [Ab] (nM)", "setting": "[7]", "value": 2.63, "unit": "nM"}, {"measurement": "binding result", "setting": "Mouse CD200R1-His", "value": "no binding"}]}
{"binder": "B3", "values": [{"measurement": "Blocking(Max)", "setting": "[8]", "value": 98, "unit": "%"}, {"measurement": "MFI(Max)", "setting": "[9]", "value": 18900}, {"measurement": "EC50", "setting": "[10]", "value": 0.277, "unit": "nM"}, {"measurement": "EC50", "setting": "[11]", "value": 0.24, "unit": "nM"}, {"measurement": "EC50", "setting": "[12]", "value": 6.82, "unit": "nM"}, {"measurement": "MFI (MAX)", "setting": "[12]", "value": 52200}]}
